Assay: soluble on expression in E. coli; label from the status in PepcDB or PDB records

MSLSDGNITFAYSYPIKAFEKFLGYYDRENRIAFNPSISMRTDFSFCLAACRYRKNGKTDTVVLDGYADNKYYKKAKFALDKFRSEYSINGSFDFYIKRYRRYQKAKGLSESSAVAAAVSRALISNVFGDDAAKDDIFVSRYARLVSGSGTRAAHDGISMWLSYPGMDSRDCVAFKVGKSNENLNYGVFPKYSDVATDNAHSIAVNSVFYGTWVSEKFSNVKRLISDHFDINDLLKIGENDMLRLNSILMSGGLIIQTPDSLRILKEILKFKSKNEGFYFTADTGPSIAIFSFDRSLIDEFRENVNDEYIEGSYDFKGYNNEGHHHHHH
soluble on expression in E. coli: not soluble

MGKVYIVGAGPGDPDLITVKGLKCIEKADVILYDRLVNKELLSYAKPEADLIYCGKLPNYHTMKQETINTFLIKYAKKGKIVTRLKGGDPFVFGRGGEEAEALAKQGVPFEIVPGISAGIAAPAYAGIPVTHRDASASFAIVTGHRKEDAAEEVKWGNLAKGVETLAVYMGVSNLPYICEQLMKHGKDKSTPAAIIERGTTSMQRTVVGTLGTIVDVAKKEQIQNPSMIVIGEVVRFREKIHWFEKQTESTYQVSGVL
soluble on expression in E. coli: not soluble

GPGSMEAVGTADRPSLEFCPQAQNSPQTRPLLCVRRPPETVRRRHDRNPPRDSTQTADAVPWDSSSSPPHASCTAGGYKTSRGARQMALPFLFPPPGVGQRSFVADRVHRRQHCGLAQPLPQPWLRAASRSILLGDASSALPPLDPPAARPSVCRQRLALHGSGG
soluble on expression in E. coli: not soluble

LQQQEEETYADACDEFLDPIMSTLMCDPVVLPSSRVTVDRSTIARHLLSDQTDPFNRSPLTMDQIRPNTELKEKIQRWLAERKQQ
soluble on expression in E. coli: soluble

MSTIIMDLCSYTRLGLTGYLLSRGVKKREINDIETVDDLAIACDSQRPSVVFINEDCFIHDASNSQRIKLIINQHPNTLFIVFMAIANVHFDEYLLVRKNLLISSKSIKPESLDDILGDILKKETTITSFLNMPTLSLSRTESSMLRMWMAGQGTIQISDQMNIKAKTVSSHKGNIKRKIKTHNKQVIYHVVRLTDNVTNGIFVNMR
soluble on expression in E. coli: not soluble

MLRVLVRTGSEACRAVSTSTAVLSVHPVVKSEDLSAKEIWDRRSKLRVPKLQKDEQLSSKVYFAPEWDLEKKPNLDEGFVNPLKGYGMTPEKWEYYNKVVWPPNYIVPETGLPKPKEVFHCKESVHFSPKRMWAACQLVWKMNVDEAITQLDMQQLKACNLLMDTIKKAKSRAADEFHIEYPSQMYVADAFPVQSNIVKGARRHAHDNWNTIRYRYIHIFVRLEEGPAPQQKQRHPQKNGWDHMDEYYNYLRSRTVKYSI
soluble on expression in E. coli: not soluble

MGSDKIHHHHHHMSLKAKLARKFVYAVFPDVRKYTSIKPAFENSPDSPEGRLVPEVVALYGKPGVHILKMALVLPYLVGTAYYARKSVTSVRRNPGKGKKTAPPEFFEELESYAKSLGVLKVGYTKLTPELVFSNRAVLFENAIVLIGEMRKKEIAKAPGVRAGMEVWRTYYRLTRAAYKIAEFLRERGYNAQPDPAVGRSTNFPLLAQKAGLDHIGKHGLLITPENGPSVRIGAVYTDLELPYTDERVREHGWIPHFCDRCNACVRACPAQAIYITPRRENGREVHIDYKRCAVIFSRTLGCSICVKECTFTKGSYEKIKRVHEKIRNR
soluble on expression in E. coli: not soluble

MTEFESTEDQKPTMLASLDHLSLRNWASPFEEASTPPTASDDSFQSSSEDNLSLRNWAPLSPNPETVKSAKSLRNYSTNPLIPSYICDLCESPKTSELRVAYDAATFQTTYSYSIIWDVEMNDVEHYRKVMETVSKSSANSSRSSFGYFFEARPGMCRLLRTLHNYATDTSQASLADYMIELSGRAPSPVVVKCGHYLCTACFDIVKNADGTYGCSSQQCYWKGSSRQESKKNYENDICRKQRAKALGMKDLGIDVKPASSASSNPIKETSDSSSETNCSLSSGPVSFNHTMLNSLTPVAEHSVAIMMVLVEPLEVYGIVHSYVEMSFPLDTNLAKALGVMLHRKKKILGDYVANGKLYFGFVNDDEKIGMRRIKSNYYDSLMVAEIPKFDDRVVLIFDVGDYVARGFKIYLK
soluble on expression in E. coli: not soluble

MSLSTPPRAFSLVETGEALTRGDEPSPTRSAVLTRLSHSHMRFGTFQRLAYLDRRDLMVQLVDHVIESYFPDLADESDRPAVLMRAVVSASARLLSRWMSAGFVHGVLNTDNMVVTGESFDYGPWRFLPRNDPNFVAAYFDHAGLYSFGRQPEAVFWNLQQLAGCLSLVTDQAALLAALNSFSDLYRAALRGAMLDRLGLKSRGAEADIALVNTAFRALAEGGETLRWEPFFFDWFGGAASEERALRGPRAGLYAGEAFLDLRRALADFDPDRPERLAHPAFARPEPEELIIDEVEALWSPIADADDWGPLNAKLARIDAAREAYALGQAQIEGHHHHHH
soluble on expression in E. coli: soluble

QETEDPACCSPIVPRNEWKALASECAQHLSLPLRYVVVSHTAGSSCNTPASCQQQARNVQHYHMKTLGWCDVGYNFLIGEDGLVYEGRGWNFTGAHSGHLWNPMSIGISFMGNYMDRVPTPQAIRAAQGLLACGVAQGALRSNYVLKGHRDVQRTLSPGNQLYHLIQNWPHYRSP
soluble on expression in E. coli: soluble

ERGKFAAVFNDITERRLMEDELRRQEQSHRLVLDNIPDIIARFDRELRHLYVSAAITRVTGFPPEHFIGRTNREIGMPDELVDRWDAAINEVFSSGREQRLEFTYQSPRGLRHFETTLIPERGADDSSAAVLVVNHD
soluble on expression in E. coli: not soluble

GPGSMSLKKKTFKQRIRKNDMKQRHQIGFGLRKRMGAARRIRNRYDSVDDGTRPMEMIVSEIAEGTAVPSQEAVLDPRSLTDLLLRPAESPVSNNSASASANVATTSCAVASKSNGCSSALWKRGSSKSSALLTSVPLASEKVLPSLPLAPDDPLALPDTRVFEEEERQQRLAREAAARQNENKNLYRHSGQPYLFWERVGLHPALLQALRDLHFTHPTPVQEEVLPNVLASGDEGLARQRSSEADKKSKKHKRAGGAADSAGHDVVVSAETGSGKTLVFALPILQDLLTTLDTERVSAVTPTSSAEAVHEKATGQASSDAAWRERS
soluble on expression in E. coli: soluble

MKRHYLFSICILTLLLLAACGSSATEDHELEVPEDQETIEIDGEEEDSSQPVFSDEEALVVDDLLEEESRGEEATEHSEPIEEDTSTPSEASGSENVEETEQQPADENNQAFALNVKKFKLELEWQDGDELEMEYEQKKNEKGKAKVEWDGAHKEKMSGKQAVEWMEDFLSQLDLSEGTNSDRLKSQVYAILDIDPSEVEELDLEIEFFDMAGDPLEHHHHHH
soluble on expression in E. coli: not soluble

RYNGLTLRSVFQPIFDKQHQVVGAEALVRIFTQHHTQIRPDLFFHSETFADDDKLNVERLSRAIHIRNFSLSPYRDTRLFLNVLPVAGEQFAYCDISSTLLATRLAELNIPHHRVVMELVEIESGDEGMLQMATEKLVANGFQIAIDDFGCKASTPERVAMLRPNIIKLDRQLLLDFMAGDCCGLLAGVQLAQKTGAHTVVEGIETAEQLAAMQKLDINMYQGYYLALPEGIAQTAKVANAN
soluble on expression in E. coli: not soluble

MSTENDVSEENNSELDDVEDAKQDDRRRSTTVIMTMNVTTVPATESEGVRRNGSVRRRLSKQNATIEEPISLLSISDSPSENSDTTVPCIEEHPEEGKEEEKPAESSDVSKLRPPGLAQNKLWSTSKSLSRESTGTEYSDRSGIDLRNFVDRTLHKSEEDRKQLLEFEKQLKELILDDSTQSKRFELPSSYHRMLLHRCAAWFGLDHNVTNKQTDIVVNKSEKTKIPDDNFTDYIRHDNYVEDRLKRQNTCGSRKELHHMESFGDHSTSQYGSQASLNHDLLMMRRAQSFDVAAVTGPSVIQPQSPHHVRGLPMRQLSLNCPQQSMVTAPMSGPQGHQWAPQRSFDCSNNSYLCTGKHPMMRKAESFGGMANGISHGCYEQSVPVVCGTPPSVMVHHHHHHAHIQQPPTSNYTGYQVFEEMSMPSSNYQEPGMCSPGGTYYEYVPQPVVQPQQYARPIRYMPQDYRRPQGVQYMYGPPPPQQYMQYQPMVHPEVEVIVDPVQTQPFPQVSHFVLPDQQQGYSSSHQAETANSFIKASIDGGYGSMNQDVENAEKVEEV
soluble on expression in E. coli: not soluble

MAHHHHHHMSSAVVKPSNGEMPKTKEQKEMKNEYQVETNKELQVNLNFHNNNIISNIFSNLSLFDYLTNIFTINKKTYMLKYCNKLNEDNFYISYFQKENDKFAQISPWHDIDLMNEDGTYNMVVEITKYNYIKLEIQLKENFNVIKQDTKKGKLRYYHNSIYWNYGALPRTYEYPKHIYTCQTGDNQDLFFTGDDDPLDVVDVGQNSLKMGQVVPVKVGSMQSHMTYM
soluble on expression in E. coli: not soluble

MFRIGQGFDVHQLVEGRPLIIGGIEIPYEKGLLGHSDADVLLHTVADACLGAVGEGDIGKHFPDTDPEFKDADSFKLLQHVWGIVKQKGYVLGNIDCTIIAQKPKMLPYIEDMRKRIAEGLEADVSQVNVKATTTEKLGFTGRAEGIAAQATVLIQKG
soluble on expression in E. coli: not soluble

MLRTFRIGGIHPPENKLSAGKPVEVLPIPSQVVIPLGQHIGAPATATVKKGDEVKVGTIIAQAGGFVSANIHSSVSGKVLKIDNVYDSSGYPKPAVFISVEGDEWEEGIDRSPAIVKECNLDAKEIVAKISAAGIVGLGGATFPTHVKLSPPPGNKAEILIINAVECEPYLTSDHVLMLEHGEEIMIGVSILMKAIQVNKAVIGVENNKKDAIAHLTKLATAYPGIEVMPLKVQYPQGGEKQLIDAVIRKQVKSGALPISTGAVVQNVGTVFAVYEAVQKNKPLVERIVTVTGKKLSRPSNLLVRIGTPIAALIEAAGGLPENTGKIIGGGPMMGRALLSPDVPVTKGSSGVLILDREEAVRKPMRDCIRCAKCVGVCPMGLNPAFLMRDTLYKSWETAEKGNVVDCIECGSCSFTCPANRPLLDYIRQAKKTVMGIQRARKQLEHHHHHH
soluble on expression in E. coli: not soluble

MGSDKIHHHHHHMDRVQAMRVFVAVVDCGGFTRAAQQLQLPRATVSSAVQQLEAQLGARLLHRTTRRVQLTLDGGTFYERCQQLLADFDELESLFSQQGASPRGKLRIDVPGPIGRQVLAPALPEFFRLYPGIELELGVTDRPVDLIQEGVDCVIRVGALAESRLVARRIGMLPQGNYASPDYLAAFGAPASPDALAGHRAVNYASPSTGKVFAWEYLQDGERRELALQSLVSVNQVESYIACALAGLGMIQLPRYDAEPHVAAGALVEVLADWPPPAMPVSVLYPHRRHLSRRVQVFVEWAGALLRERLRLGA
soluble on expression in E. coli: not soluble

MQNISIAENNRTGIPVQSLSYEQAAKGPTGSIMTEGYAKAIANYAYVWGWPMVNMHNRREAFKQVPYQGYIGGAMPAAPINHLTMLSDYVSPNMRDVAHPNQDVVYGFGMLSLDKEPVVIQVPDFGDRFWTVMAEDQRTDSFAQLSSIYDSKPGFYMIVSPEWDGEIPEGINKVFRSSTDLAVVIPRVFMDDTAEDREAIQSVVNQLGAYPLSEFTGIMKITNWKSLPNIPEAKKTKSEKTWVNPNMFFSAEQLGKVLEEVSPLPGEEAMYAQFKELLLQAEENKELQKILNDVANEAEMNIVTPLFRLENVGKEINNYWTRPQDNGRFGTDYLTRLAVAKSNIFTNDVTETSYLYQYKDENGTRINGNHNYTLTFKKGELPPVDGFWSLTMYNSNHFFVPNDIKRYSIGTKNKGMKYNKDGSLTIYIQNEKPSEDKIGNWLPAPKDDIAMTIRAYGPKEEMLSGTWQPPAVVKIKLEHHHHHH
soluble on expression in E. coli: soluble

MSEADQALVGPKADEPSPPAEEKDEGGGKEAAADAAPGPSASFRLMVTRREPAVKLQYAVSGLEPLSWSEDHRVSVSTARSVAVLELICDVHNPGQDLVIHRTSVPAPLNSCLLKVGSKTEVAECKEKFASSKDPTISQTFMLDRMFNPEGKALPPMRGFKYTSWSPMGCDANGRCLLAALTMDNRLTVQVNLNRLQWVQLVDLTEIYGDRLYETSYRLSKNEAPEGNLGDFAEFQRRHSMQTPVRMEWSSICTTQQVKHNNECRDVSS
soluble on expression in E. coli: not soluble

From the DeepSol protein solubility set
